Experimental data taken from publication PMC4498498.

What was measured:
Experiment in all cases: purified protein
Conditions in all cases: 0.2 mM NADPH, 50 mM Tris-HCl pH 7.5, 1 mM DTT, 25°C
CC(=O)C(C)O = system: CC(=O)C(C)O
purified protein [1] = substrate: CC(C)=O
purified protein [2] = substrate: CC(=O)C(C)O; remark: listed apart in the source
purified protein [3] = substrate: CCC(C)=O

Molecule | Km (CC(=O)C(C)O) [mM] | kcat (CC(=O)C(C)O) [s⁻¹] | kcat/Km (CC(=O)C(C)O) [M⁻¹ s⁻¹] | Km (purified protein [1]) [mM] | kcat (purified protein [1]) [s⁻¹] | kcat/Km (purified protein [1]) [M⁻¹ s⁻¹] | Km (purified protein [2]) [mM] | kcat (purified protein [2]) [s⁻¹] | kcat/Km (purified protein [2]) [M⁻¹ s⁻¹] | Km (purified protein [3]) [mM] | kcat (purified protein [3]) [s⁻¹] | kcat/Km (purified protein [3]) [M⁻¹ s⁻¹]
CaADH (Clostridium autoethanogenum DSM 10061; S199R) | 34 ± 5 | 95 ± 4 | 2800 |  |  |  |  |  |  |  |  | 
CaADH (Clostridium autoethanogenum DSM 10061) (protein) KGFAMLGINKLGWIEKKNPVPGPYDAIVHPLAVSPCTSDIHTVFEGALGNRENMILGHEAVGEIAEVGSEVKDFKVGDRVIVPCTTPDWRSLEVQAGFQQHSNGMLAGWKFSNFKDGVFADYFHVNDADMNLAILPDEIPLESAVMMTDMMTTGFHGAELADIKMGSSVVVIGIGAVGLMGIAGSKLRGAGRIIGVGSRPVCVETAKFYGATDIVNYKNGDIVEQIMDLTHGKGVDRVIMAGGGAETLAQAVTMVKPGGVISNINYHGSGDTLPIPRVQWGCGMAHKTIRGGLCPGGRLRMEMLRDLVLYKRVDLSKLVTHVFDGAENIEKALLLMKNKPKDLIKSVVTF |  |  |  | 1.0 ± 0.1 | 55 | 55000 | 98 ± 10 | 150 ± 8 | 1600 | 1.8 ± 0.2 | 37 | 21000
